Reference: patent US20260224723A1, “ANTI-B7H3 ANTIBODY-DRUG CONJUGATE AND USE THEREOF” (Duality Biologics (Suzhou) Co., Ltd., priority 2022, published 2026)

Experiments:
[1] = target: T1, human B7H3 (Homo sapiens, UniProt Q5ZPR3); assay: FACS binding to human B7H3-expressing cells MCF-7
T1 construct: MCF-7 cells expressing human full-length B7H3; host or cells: MCF-7
T1 sequence (Q5ZPR3 29-534): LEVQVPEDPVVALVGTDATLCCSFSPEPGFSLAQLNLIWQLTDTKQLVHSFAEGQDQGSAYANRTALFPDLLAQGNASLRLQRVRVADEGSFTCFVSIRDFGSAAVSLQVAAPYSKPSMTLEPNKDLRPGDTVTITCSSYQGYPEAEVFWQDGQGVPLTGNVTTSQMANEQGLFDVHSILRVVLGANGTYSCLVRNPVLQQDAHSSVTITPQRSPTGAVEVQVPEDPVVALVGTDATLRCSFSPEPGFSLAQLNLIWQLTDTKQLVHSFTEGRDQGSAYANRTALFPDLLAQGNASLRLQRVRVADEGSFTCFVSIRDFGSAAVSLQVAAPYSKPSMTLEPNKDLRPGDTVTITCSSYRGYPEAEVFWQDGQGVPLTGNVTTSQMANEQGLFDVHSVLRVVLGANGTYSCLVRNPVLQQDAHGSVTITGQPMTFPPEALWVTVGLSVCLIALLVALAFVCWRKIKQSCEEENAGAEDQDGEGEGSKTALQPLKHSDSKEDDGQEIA
Description: FACS was used to detect the binding of antibodies to human B7H3. This method allows quantitative analysis and identification of specific molecules expressed on the surface of living cells. Unlabeled cells were used as a control to set a threshold before the assay, and the percentage change for each group that exceeded the fluorescence intensity threshold was analyzed. MCF-7 cells expressing human full-length B7H3 (1×10^5 cells/well) were incubated with various concentrations of antibodies (3.16-fold serially diluted with 1×DPBS/1% BSA from 50 nM to 0.0005 nM) in a volume of 100 μL/well in a refrigerator set to 4° C. for 1 h. Anti-human B7H3 reference antibody enoblituzumab (MacroGeneics) was used as a positive control. Human IgG1 isotype antibody was used as a negative control. After washing the cells with 1×DPBS/1% BSA, Alexa 647 goat anti-human antibody (diluted in a 1:500 ratio in 1×DPBS/1% BSA) was added. The cells were incubated in a refrigerator set to 4° C. for 0.5 h in the dark. The mean fluorescence intensity (MFI) of the cells was measured by a flow cytometry and analyzed by FlowJo. EC50 values were calculated by four-parameter non-linear regression analysis using GraphPad Prism 7 software.

[2] = system: cynomolgus monkey B7H3; assay: FACS binding to cynomolgus monkey B7H3-transfected stable cell pool
Description: A cell pool expressing cynomolgus monkey B7H3 was generated. Briefly, FlipinCHO cells were transfected with a pcDNA5/pOG44 expression vector containing full-length cynomolgus monkey B7H3 using Lipofectamine 2000 transfection kit (Invitrogen, 11668027) according to the manufacturer's protocol. At 48 h post-transfection, the cells were subcultured into a selective medium (F12 containing 10% FBS and 600 μg/mL hygromycin B) in a T75 flask. After two or three passages of selection, a cell pool stably and highly expressing cynomolgus monkey B7H3 (WBP3XX088-FlpinCHO.cProl.pool) was obtained by hygromycin B selection and BD FACSMelody™ cell sorting.
FACS was used to detect the binding of antibodies to cynomolgus monkey B7H3. FlpinCHO cells were transfected with cynomolgus monkey B7H3 (W3XX088-FlpinCHO.cProl.pool) (1×10^5 cells/well), and the transfected cells were incubated with various concentrations of antibodies (3.16-fold serially diluted with 1×DPBS/1% BSA from 50 nM to 0.0005 nM) in a volume of 100 μL/well in a refrigerator set to 4° C. for 1 h. Anti-human B7H3 reference antibody enoblituzumab (MacroGeneics) was used as a positive control. […] The mean fluorescence intensity (MFI) of the cells was measured by a flow cytometry and analyzed by FlowJo. EC50 values were calculated by four-parameter non-linear regression analysis using GraphPad Prism 7 software.

[3] = target: T2, human 4IgB7H3 (Homo sapiens, UniProt Q5ZPR3); assay: SPR binding affinity for human 4IgB7H3 (Biacore 8K); conditions: analyte human 4IgB7H3
T2 construct: Uniprot ID: Q5ZPR3, amino acids 29-461; 6xHis (C); made in house; host or cells: Expi293F
T2 sequence (Q5ZPR3 29-461): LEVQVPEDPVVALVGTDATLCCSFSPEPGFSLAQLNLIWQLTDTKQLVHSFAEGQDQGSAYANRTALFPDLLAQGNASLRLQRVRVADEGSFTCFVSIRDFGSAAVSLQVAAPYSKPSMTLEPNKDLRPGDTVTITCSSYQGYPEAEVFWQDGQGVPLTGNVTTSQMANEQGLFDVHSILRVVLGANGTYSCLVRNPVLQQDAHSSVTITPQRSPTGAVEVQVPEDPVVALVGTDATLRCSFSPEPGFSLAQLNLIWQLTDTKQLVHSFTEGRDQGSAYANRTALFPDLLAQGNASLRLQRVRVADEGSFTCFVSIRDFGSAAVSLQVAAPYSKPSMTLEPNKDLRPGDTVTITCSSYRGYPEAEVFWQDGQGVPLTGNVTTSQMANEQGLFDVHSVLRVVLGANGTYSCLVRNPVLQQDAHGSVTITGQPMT
Description: (§1) The affinity of antibodies for human 4IgB7H3 was determined using surface plasmon resonance (SPR). The affinity of antibodies for human 4IgB7H3 was determined by Biacore 8K. An activator was prepared by mixing 400 mM EDC and 100 mM NHS (GE) immediately prior to injection into the channel. The CM5 sensor chip was activated for 420 seconds with the activator. Goat anti-human Fc IgG (30 μg/mL in 10 mM NaAc, pH 4.5) was then injected into the channel at a flow rate of 10 μL/min for 420 seconds. The chip was deactivated by 1 M ethanolamine hydrochloric acid. The antibodies diluted in running buffer (1×HBS-EP+) were injected into the channel at a flow rate of 10 μL/min for 30 seconds. Seven concentrations (100 nM, 50 nM, 25 nM, 12.5 nM, 6.25 nM, 2.125 nM, and 1.563 nM) of analyte human 4IgB7H3 were injected sequentially into the channel at a flow rate of 30 μL/min for an association phase of 180 seconds, followed by dissociation of 3600 seconds. Glycine (10 mM, pH 1.5) was injected as regeneration buffer after the dissociation phase.
(§2) The sensorgrams for the reference channel and the buffer channel were subtracted from the test sensorgrams. The experimental data were fitted with a 1:1 binding model. The molecular weight of the human 4IgB7H3 used in the calculation was 47.8 kDa.
(§3) The experimental data were fitted by a 1:1 binding model bundled with the Biacore 8K evaluation software.

[4] = target: T3, human 2IgB7H3 (Homo sapiens, UniProt Q5ZPR3); assay: SPR binding affinity for human 2IgB7H3 (Biacore 8K); conditions: analyte human 2IgB7H3
T3 construct: His tag; purchased ACRO (ACROBiosystems) B73-H52E2
T3 sequence (Q5ZPR3 29-316 isoform Q5ZPR3-2 limits assumed): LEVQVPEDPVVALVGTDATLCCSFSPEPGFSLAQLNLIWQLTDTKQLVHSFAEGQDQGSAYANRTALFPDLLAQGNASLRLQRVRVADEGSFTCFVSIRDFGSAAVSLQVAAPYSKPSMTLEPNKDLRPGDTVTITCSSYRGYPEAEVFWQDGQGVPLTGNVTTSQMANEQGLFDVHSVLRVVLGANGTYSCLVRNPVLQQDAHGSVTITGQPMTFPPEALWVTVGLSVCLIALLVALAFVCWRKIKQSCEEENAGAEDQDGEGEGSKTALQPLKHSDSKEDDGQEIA
Description: The affinity of antibodies for human 2IgB7H3 was determined using surface plasmon resonance (SPR). The affinity of antibodies for human 2IgB7H3 was determined by Biacore 8K. An activator was prepared by mixing 400 mM EDC and 100 mM NHS (GE) immediately prior to injection into the channel. The CM5 sensor chip was activated for 420 seconds with the activator. Goat anti-human Fc IgG (30 μg/mL in 10 mM NaAc, pH 4.5) was then injected into the channel at a flow rate of 10 μL/min for 420 seconds. The chip was deactivated by 1 M ethanolamine hydrochloric acid. The antibodies diluted in running buffer (1×HBS-EP+) were injected into the channel at a flow rate of 10 μL/min for 30 seconds. Seven concentrations (500 nM, 250 nM, 125 nM, 62.5 nM, 31.25 nM, 15.625 nM, and 7.813 nM) of analyte human 2IgB7H3 were injected sequentially into the channel at a flow rate of 30 μL/min for an association phase of 120 seconds, followed by dissociation of 300 seconds. Glycine (10 mM, pH 1.5) was injected as regeneration buffer after the dissociation phase.
The sensorgrams for the reference channel and the buffer channel were subtracted from the test sensorgrams. The experimental data were fitted with a 1:1 binding model. The molecular weight of the human 2IgB7H3 used in the calculation was 25.2 kDa.
as §3

[5] = system: cynomolgus monkey B7H3; assay: SPR binding affinity for cynomolgus monkey B7H3 (Biacore 8K); conditions: analyte cynomolgus monkey B7H3
Description: as §1, with “cynomolgus monkey B7H3” for “human 4IgB7H3”, “Fe” for “Fc”, “Seven concentrations (100 nM, 50 nM, 25 nM, 12.5 nM, 6.25 nM, 2.125 nM, and 1.563 nM) of analyte human 4IgB7H3 were injected sequentially into the channel at a flow rate of 30 μL/min for an association phase of 180 seconds, followed by dissociation of 3600 seconds.” left out
as §2, with “data for 6 analyte concentrations (50 nM, 25 nM, 12.5 nM, 6.25 nM, 3.125 nM, and 1.563 nM)” for “data”, “cynomolgus monkey B7H3” for “human 4IgB7H3”, “49” for “47.8”
as §3

[6] = system: MCF-7 cells expressing human full-length B7H3; assay: Internalization test (HCS) on MCF-7; format: cell-based; conditions: MCF-7, HCS
Description: Antibody internalization was determined by operetta CLS (PerkinElmer), a high-content imaging and analysis system that can collect and analyze images of samples at high speed and high sensitivity. MCF-7 cells expressing human full-length B7H3 (1.5×10^4 cells/well) were seeded into a 96-well clear bottom black plate pre-coated with 8 μg/mL poly-D-lysine. After incubation in an incubator set to 37° C., 5% CO2 overnight, various concentrations of the antibodies (3.16-fold serially diluted with 1×DPBS/1% BSA from 50 nM to 0.0005 nM) were incubated in a volume of 100 μL/well in a refrigerator set to 4° C. for 2 h. Anti-human B7H3 reference antibody enoblituzumab (MacroGeneics) was used as a positive control. Human IgG1 isotype antibody was used as a negative control. After washing the cells with 1×DPBS/1% BSA, Alexa 647 goat anti-human antibody (diluted in a 1:500 ratio in 1×DPBS/1% BSA) was added. The cells were incubated in a refrigerator set to 4° C. for 1 h in the dark. The cells were then washed once and resuspended in 1×DPBS/1% BSA at 37° C. for 2 h. […] The mean fluorescence intensity (MFI) of the cells was measured and analyzed by operetta CLS. EC50 values were calculated by four-parameter non-linear regression analysis using GraphPad Prism 7 software.

Maximum MFI [1]: 4644 | ka [3]: 124000 M⁻¹ s⁻¹ | kd [3]: 0.000126 s⁻¹ | ka [4]: 64400 M⁻¹ s⁻¹ | kd [4]: 0.0168 s⁻¹ | ka [5]: 185000 M⁻¹ s⁻¹ | kd [5]: 8.14e-05 s⁻¹
B1: Enoblituzumab (MacroGenics): anti-B7H3 benchmark antibody, sequences SEQ ID NOs: 117 and 119 of US20120294796A1 (antibody, chains of the INN, looked up)
heavy: EVQLVESGGGLVQPGGSLRLSCAASGFTFSSFGMHWVRQAPGKGLEWVAYISSDSSAIYYADTVKGRFTISRDNAKNSLYLQMNSLRDEDTAVYYCGRGRENIYYGSRLDYWGQGTTVTVSSASTKGPSVFPLAPSSKSTSGGTAALGCLVKDYFPEPVTVSWNSGALTSGVHTFPAVLQSSGLYSLSSVVTVPSSSLGTQTYICNVNHKPSNTKVDKRVEPKSCDKTHTCPPCPAPELVGGPSVFLLPPKPKDTLMISRTPEVTCVVVDVSHEDPEVKFNWYVDGVEVHNAKTKPPEEQYNSTLRVVSVLTVLHQDWLNGKEYKCKVSNKALPAPIEKTISKAKGQPREPQVYTLPPSREEMTKNQVSLTCLVKGFYPSDIAVEWESNGQPENNYKTTPLVLDSDGSFFLYSKLTVDKSRWQQGNVFSCSVMHEALHNHYTQKSLSLSPG
light: DIQLTQSPSFLSASVGDRVTITCKASQNVDTNVAWYQQKPGKAPKALIYSASYRYSGVPSRFSGSGSGTDFTLTISSLQPEDFATYYCQQYNNYPFTFGQGTKLEIKRTVAAPSVFIFPPSDEQLKSGTASVVCLLNNFYPREAKVQWKVDNALQSGNSQESVTEQDSKDSTYSLSSTLTLSKADYEKHKVYACEVTHQGLSSPVTKSFNRGEC
Maximum MFI [2]: 19700 | Antibody internalization Maximum MFI [6]: 39777
